Measurements published in PMC12098678.
Values belong to the substance of their own block, whether it stands above or below them.

Key:
[1] = molecular target: human recombinant biotinylated FcRn (neonatal Fc receptor) (human) (UniProt P55899); assay: SPR; ProteOn XPR36; biotinylated human FcRn immobilised on an NLC chip, IL-12Fc variants or control antibodies as analytes (0-6075 nM); histidine buffer (20 mM histidine, 150 mM NaCl, 0.05% Tween 20) pH 6.0; KD from binding equilibrium analysis; values of Figure 2B (for WT and NHQ those of the channel labelled 100-115 RU in the sheet of Figure S2C)
[2] = molecular target: human recombinant biotinylated FcRn (neonatal Fc receptor) (human) (UniProt P55899); assay: SPR; as a1, channel L1, FcRn coating density labelled 550-600 RU; WT 365-4.5 nM, NHQ 3645-45 nM; pH 6.0; equilibrium analysis
[3] = molecular target: human recombinant biotinylated FcRn (neonatal Fc receptor) (human) (UniProt P55899); assay: SPR; as a1, channel L5, FcRn coating density labelled 30-35 RU; WT 365-4.5 nM, NHQ 3645-45 nM; pH 6.0; equilibrium analysis
[4] = molecular target: human recombinant biotinylated FcRn (neonatal Fc receptor) (human) (UniProt P55899); assay: SPR; as a1, channel L2, FcRn coating density labelled 250-260 RU; WT 365-4.5 nM, NHQ 3645-45 nM; pH 6.0; equilibrium analysis
[5] = molecular target: human recombinant biotinylated FcRn (neonatal Fc receptor) (human) (UniProt P55899); assay: SPR; as a1, channel L4, FcRn coating density labelled 75-80 RU; WT 365-4.5 nM, NHQ 3645-45 nM; pH 6.0; equilibrium analysis
[6] = molecular target: human recombinant biotinylated FcRn (neonatal Fc receptor) (human) (UniProt P55899)

Substance: Control IgG1 (antibody)
- Kd [1]: 218 nM

Substance: IL-12Fc WT (IHH) (Fc fusion)
- Kd [1]: 101 nM
- Kd [2]: 216 nM
- Kd [3]: 445 nM
- Kd [4]: 60.1 nM
- Kd [5]: 186 nM

Substance: human IL-12Fc NHQ (I253N H435Q), FcRn-silenced IL-12Fc (Fc fusion)
- IL-12 level in the ipsilateral brain hemisphere 6 h after CED of 1 ug into the striatum of hFcRn Tg32 mice, compared to the IAQ and AAA variants and WT IL-12Fc [6]: > 30%

Next, values leading:

- Kd [1]: 343 nM
Substance: Control IgG4 (antibody)

- Kd [1]: 182 nM
Substance: IL-12Fc WT S228P (Fc fusion)

- residual brain level of IL-12Fc WT 6 h after CED in hFcRn Tg32 mice given the FcRn inhibitor MST-HN Fc (100 ug i.v.) beforehand [6]: > 50%
Substance: human IL-12Fc WT (IHH), single-chain IL-12 fused to human IgG4 Fc (Fc fusion)
